Experimental data reported in patent US20070202116A1, “Treatment of micro-organism infection” (priority 2001, published 2007).

Assays:
[1] = mice
Description: The pharmacokinetic (PK) characteristics of Aurograb have been studied in mice. A murine model was used because efficacy and dose ranging studies have been performed in this species as were the repeat dose toxicology studies. Mice were given a single high dose as an iv bolus and then examined in duplicate for blood levels and organ distribution. Urine samples were also analysed. Samples were analysed for functional activity, measured by ELISA (blood samples only) and drug concentration (SDS PAGE/immunoblots).

[2] = Storage stability and iv fluid compatibility of Aurograb; format: physicochemical
Description: The lyophilised drug is stored in glass vials at 4° C. in the dark. Overnight transport at ambient temperatures is acceptable. Avoid prolonged exposure to bright light or excessive humidity. No change in Aurograb activity after storage at 4° C. (3 months) has been observed.
After reconstitution with water, Aurograb must be stored at 4° C. and should be used within 14 hours.
Saline for iv use is compatible with reconstituted Aurograb (at a 50:50 dilution).

human blood = test: Blood compatibility study (haemolysis); conditions: human blood, 37° C., 1 hour; 0.1 mg/ml
Description: This study was carried out by Biochemical Pharmacology department at Inveresk Research, Scotland, in order to assess the suitability of Aurograb for intravenous administration.
Blood samples were taken from healthy human volunteers, transferred to tubes containing Aurograb, Aurograb vehicle, saponin or saline and incubated at 37° C. for 1 hour. After centrifugation, the amount of haemoglobin in the supernatant was then assessed to determine haemolysis.

EMRSA-15 = test: Data Set 1: murine sub-lethal infection, Aurograb alone; format: in vivo, S. aureus
Description: The murine model of staphylococcal infection is widely used and is routinely used in the assessment of antimicrobial drugs. It is a good predictor of efficacy in infected humans since S. aureus is introduced intravenously to create a bacteraemia, from which the pathogen spreads to other organs, including the kidney, liver and spleen.
Method: 20 female CD-1 mice were given a sub-lethal challenge (1.3×10^7 cfu) of a methicillin-resistant, vancomycin-sensitive strain of S. aureus (EMRSA-15, Typed Hospital Isolate, Central Manchester Healthcare Trust) in 100 μl iv bolus (all iv injections given via the lateral tail vein). 1 hour later, two groups of 10 mice, received, as 100 μl iv bolus: • 1. formulation buffer (Arginine-Urea), as negative control or • 2. Aurograb (2.0 mg/kg) in formulation buffer.
All animals were sacrificed after a further 48 h and viable cfu per gram of organ were determined.

[3] = CD-1 mice, 1.3×10^7 cfu EMRSA-15 iv, Aurograb 2 mg/kg iv 1 hour later, 48 h

B1: Aurograb: human genetic recombinant antibody (scFv with histidine tag, SEQ ID NO: 2) binding GrfA, a staphylococcal ABC transporter protein (protein)
scFv: MAKVQLLQSATEVKKPGASVKVSCKAYGYTFTDYGITWVRQAPGQGLEWMGWISAYNGYTNYAQKFQDRITMTTDASTSTAYMELRSLRPDDTAVLYCARDREDASLLRDGHWGQGTLVTVSSGGGGSGGGGSGGGGSGGGGSETTLTQSPGTLSLSPGERATLSCRASQIVSSSYLAWYQQKPGQAPRLLIYGASSRATGIPDRFSGSGSGTDFTLTISKLEPEDFAVYYCQHYGSSSPWTSRPRDQSDIKRAAALEHHHHHH
modifications: histidine tag; human single chain (scFv) recombinant antibody
Time by which all organs were cleared ([1]; lungs, brain, liver, spleen, heart, kidney and blood): ≤ 24 h | Blood levels ([1]; single intravenous bolus injection 10 mg/kg): satisfactory blood levels | Activity after reconstitution with water ([2]; left at room temperature): slowly deteriorate | Change in activity after storage ([2]; lyophilised drug, 4° C., 3 months): No change | Compatibility with saline for iv use ([2]; reconstituted Aurograb, 50:50 dilution): compatible | Compatibility with 20% glucose and sodium bicarbonate buffer ([2]; reconstituted Aurograb, reduction in ELISA activity): less compatible | Haemolysis classification (ASTM F756-93) (human blood): non-haemolytic | Kidney Log cfu/g tissue (EMRSA-15; [3]): 7.20 ± 1.15 Log cfu/g tissue | Liver Log cfu/g tissue (EMRSA-15; [3]): 3.63 ± 0.68 Log cfu/g tissue | Spleen Log cfu/g tissue (EMRSA-15; [3]): 3.79 ± 0.82 Log cfu/g tissue | Reduction in viable organisms found in all three organs (EMRSA-15; kidney, liver and spleen, Aurograb 2 mg/kg vs formulation buffer): 10 fold
